Source: patent publication US20250019440A1 (Zymeworks, published 2025)
Substitutions are numbered along the chain they refer to.

T1: Human PD-L2 (human, UniProt Q9BQ51 20-219)
T1 construct: Amine-coupled to a CM5 chip for SPR; also called recombinant PD-L2
T1 sequence (looked up): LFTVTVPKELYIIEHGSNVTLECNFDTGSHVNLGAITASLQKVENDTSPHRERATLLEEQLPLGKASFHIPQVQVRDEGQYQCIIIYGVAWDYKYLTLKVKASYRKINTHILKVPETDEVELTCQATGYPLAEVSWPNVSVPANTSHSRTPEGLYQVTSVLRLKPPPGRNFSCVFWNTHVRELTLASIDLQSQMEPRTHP

B1: v38737 (other)
heavy 1: EVQLVESGGGLVQPGGSLRLSCAASGVTFNYYGMSWIRQAPGKGLEWVASITSSGGRIYYPDSVKGRFTISRENTQKTLYLQMNSLRAEDTAVYYCTLDGRDGWVAYWGQGTLVTVSSASTKGPSVFPLAPSSKSTSGGTAALGCLVKDYFPEPVTVSWNSGALTSGVHTFPAVLQSSGLYSLSSVVTVPSSSLGTQTYICNVNHKPSNTKVDKKVEPKSCDKTHTCPPCPAPEAAGGPSVFLFPPKPKDTLMISRTPEVTCVVVSVSHEDPEVKFNWYVDGVEVHNAKTKPREEQYNSTYRVVSVLTVLHQDWLNGKEYKCKVSNKALPAPIEKTISKAKGQPREPQVYVYPPSRDELTKNQVSLTCLVKGFYPSDIAVEWESNGQPENNYKTTPPVLDSDGSFALVSKLTVDKSRWQQGNVFSCSVMHEALHNHYTQKSLSLSPGGGGGSGDRPWNPPTFSPALLVVTEGDNATFTCSFSNTSESFRLVWHRESPGYETDTLASFPEDRSTPLPDARFRVTQLPNGRDFHMSVVRARRNDSGTYVCGAIAFHPVIQIKESLRAELRVTE
light: NFMLTQPHSVSESPGKTVTISCKRNTGNIGSNYVNWYQQHEGSSPTTIIYRNDKRPDGVSDRFSGSIDRSSKSASLTISNLKTEDEADYFCQSYSSGFIFGGGTKLTVLGQPKAAPSVTLFPPSSEELQANKATLVCLISDFYPGAVTVAWKADSSPVKAGVETTTPSKQSNNKYAASSYLSLTPEQWKSHRSYSCQVTHEGSTVEKTVAPTECS
heavy 2: QVQLVESGGGLVQPGGSLRLSCSVSGIDLSSNPMIWVRQAPGKGLQYIGIIDTDGSTYYADWAKGRFTISKDSTTVYLQINSPRAEDTAVYYCARRLHGSSNGYYDDLWGQGTLVTVSSGGGGSGGGGSGGGGSGGGGSDGQMTQSPSSVSASVGDRVTITCQASQSIYSYLSWYQQKPGQRPKLLIYKASTLASGVPSRFSGSGSGTDFTLTISSVQPEDFATYYCQQGYTVTNVDKNTFGGGTKVEIKAAEPKSSDKTHTCPPCPAPEAAGGPSVFLFPPKPKDTLMISRTPEVTCVVVSVSHEDPEVKFNWYVDGVEVHNAKTKPREEQYNSTYRVVSVLTVLHQDWLNGKEYKCKVSNKALPAPIEKTISKAKGQPREPQVYVLPPSRDELTKNQVSLLCLVKGFYPSDIAVEWESNGQPENNYLTWPPVLDSDGSFFLYSKLTVDKSRWQQGNVFSCSVMHEALHNHYTQKSLSLSPG
B2: v39005 (bispecific) (other)
heavy chain 1 (H1): EVQLVESGGGLVQPGGSLRLSCAASGVTFNYYGMSWIRQAPGKGLEWVASITSSGGRIYYPDSVKGRFTISRENTQKTLYLQMNSLRAEDTAVYYCTLDGRDGWVAYWGQGTLVTVSSASTKGPSVFPLAPSSKSTSGGTAALGCLVKDYFPEPVTVSWNSGALTSGVHTFPAVLQSSGLYSLSSVVTVPSSSLGTQTYICNVNHKPSNTKVDKKVEPKSCDKTHTCPPCPAPEAAGGPSVFLFPPKPKDTLMISRTPEVTCVVVSVSHEDPEVKFNWYVDGVEVHNAKTKPREEQYNSTYRVVSVLTVLHQDWLNGKEYKCKVSNKALPAPIEKTISKAKGQPREPQVYVYPPSRDELTKNQVSLTCLVKGFYPSDIAVEWESNGQPENNYKTTPPVLDSDGSFALVSKLTVDKSRWQQGNVFSCSVMHEALHNHYTQKSLSLSPGGGGGSGQVQLVESGGGLVQPGGSLRLSCSVSGIDLSSNPMIWVRQAPGKGLQYIGIIDTDGSTYYADWAKGRFTISKDSTTVYLQINSPRAEDTAVYYCARRLHGSSNGYYDDLWGQGTLVTVSSGGGGSGGGGSGGGGSGGGGSDGQMTQSPSSVSASVGDRVTITCQASQSIYSYLSWYQQKPGQRPKLLIYKASTLASGVPSRFSGSGSGTDFTLTISSVQPEDFATYYCQQGYTVTNVDKNTFGGGTKVEIK
light chain (L1): B1 light
heavy chain 2 (H2): QVQLVESGGGLVQPGGSLRLSCSVSGIDLSSNPMIWVRQAPGKGLQYIGIIDTDGSTYYADWAKGRFTISKDSTTVYLQINSPRAEDTAVYYCARRLHGSSNGYYDDLWGQGTLVTVSSGGGGSGGGGSGGGGSGGGGSDGQMTQSPSSVSASVGDRVTITCQASQSIYSYLSWYQQKPGQRPKLLIYKASTLASGVPSRFSGSGSGTDFTLTISSVQPEDFATYYCQQGYTVTNVDKNTFGGGTKVEIKAAEPKSSDKTHTCPPCPAPEAAGGPSVFLFPPKPKDTLMISRTPEVTCVVVSVSHEDPEVKFNWYVDGVEVHNAKTKPREEQYNSTYRVVSVLTVLHQDWLNGKEYKCKVSNKALPAPIEKTISKAKGQPREPQVYVLPPSRDELTKNQVSLLCLVKGFYPSDIAVEWESNGQPENNYLTWPPVLDSDGSFFLYSKLTVDKSRWQQGNVFSCSVMHEALHNHYTQKSLSLSPGGGGGSGDRPWNPPTFSPALLVVTEGDNATFTCSFSNTSESFVLNWYRMSPSNQTDALAAFPEDRSQPGQDARFRVTQLPNGRDFHMSVVRARRNDSGTYLCGAASLAPKAQIKESLRAELRVTE
B3: v38424 (other)
heavy 1: EVQLVESGGGLVQPGGSLRLSCAASGVTFNYYGMSWIRQAPGKGLEWVASITSSGGRIYYPDSVKGRFTISRENTQKTLYLQMNSLRAEDTAVYYCTLDGRDGWVAYWGQGTLVTVSSASTKGPSVFPLAPSSKSTSGGTAALGCLVKDYFPEPVTVSWNSGALTSGVHTFPAVLQSSGLYSLSSVVTVPSSSLGTQTYICNVNHKPSNTKVDKKVEPKSCDKTHTCPPCPAPEAAGGPSVFLFPPKPKDTLMISRTPEVTCVVVSVSHEDPEVKFNWYVDGVEVHNAKTKPREEQYNSTYRVVSVLTVLHQDWLNGKEYKCKVSNKALPAPIEKTISKAKGQPREPQVYVYPPSRDELTKNQVSLTCLVKGFYPSDIAVEWESNGQPENNYKTTPPVLDSDGSFALVSKLTVDKSRWQQGNVFSCSVMHEALHNHYTQKSLSLSPGGGGGSGDRPWNPPTFSPALLVVTEGDNATFTCSFSNTSESFVLNWYRMSPSNQTDALAAFPEDRSQPGQDARFRVTQLPNGRDFHMSVVRARRNDSGTYLCGAASLAPKAQIKESLRAELRVTE
light: B1 light
heavy 2: B1 heavy 2
notes: CD3 Fab x Cldn18.2 scFv Fc, attenuated (KO) PD-1 attached to HC1 (C-term)
B4: v38426 (other)
heavy 1: B2 heavy chain 1 (H1)
light: NPPTFSPALLVVTEGDNATFTCSFSNTSESFVLNWYRMSPSNQTDALAAFPEDRSQPGQDARFRVTQLPNGRDFHMSVVRARRNDSGTYLCGAASLAPKAQIKESLRAELRVTEGGGGSGNFMLTQPHSVSESPGKTVTISCKRNTGNIGSNYVNWYQQHEGSSPTTIIYRNDKRPDGVSDRFSGSIDRSSKSASLTISNLKTEDEADYFCQSYSSGFIFGGGTKLTVLGQPKAAPSVTLFPPSSEELQANKATLVCLISDFYPGAVTVAWKADSSPVKAGVETTTPSKQSNNKYAASSYLSLTPEQWKSHRSYSCQVTHEGSTVEKTVAPTECS
heavy 2: B1 heavy 2
notes: CD3 Fab with C-term Cldn18.2 scFv x Cldn18.2 scFv Fc with attenuated (KO) PD-1 attached to CD3 LC (N-term)
B5: v38739 (other)
heavy 1: B3 heavy 1 with A503K, A551I, A557L
light: B1 light
heavy 2: B1 heavy 2

Legend:
PD-L1 on cells = PD-L1 on cells (UniProt Q9NZQ7 19-290, limits assumed); assay: cell-based or functional assay
Sequence of PD-L1 on cells (Q9NZQ7 19-290 limits assumed): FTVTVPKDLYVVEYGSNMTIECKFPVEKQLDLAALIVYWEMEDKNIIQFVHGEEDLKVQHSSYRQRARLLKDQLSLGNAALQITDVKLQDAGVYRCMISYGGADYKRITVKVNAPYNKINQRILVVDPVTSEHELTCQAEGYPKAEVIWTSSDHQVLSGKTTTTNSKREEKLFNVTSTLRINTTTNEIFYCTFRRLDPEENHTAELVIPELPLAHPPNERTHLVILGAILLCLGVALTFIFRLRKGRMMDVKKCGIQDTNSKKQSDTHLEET

Human CD3 (recombinant) = Human CD3 (recombinant) (human); assay: SPR, CD3 amine-coupled, variant as analyte, 1:1 model
Sequence of Human CD3 (recombinant) (human) (chain, as listed by the source): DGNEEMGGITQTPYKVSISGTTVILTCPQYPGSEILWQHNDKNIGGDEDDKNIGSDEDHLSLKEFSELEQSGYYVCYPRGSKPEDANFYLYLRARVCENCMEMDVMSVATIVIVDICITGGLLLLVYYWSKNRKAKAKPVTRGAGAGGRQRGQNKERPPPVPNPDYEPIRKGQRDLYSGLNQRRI

Human PD-L1 [1] = molecular target: T2, Human PD-L1 (human, UniProt Q9NZQ7 19-239); assay: SPR, PD-L1 amine-coupled, variant as analyte, 1:1 model; third of three variants in the merged cell (G1 4-1 PD-1)
T2 construct: Amine-coupled to a CM5 chip for SPR; also called recombinant human PD-L1
T2 sequence (Q9NZQ7 19-239 limits assumed): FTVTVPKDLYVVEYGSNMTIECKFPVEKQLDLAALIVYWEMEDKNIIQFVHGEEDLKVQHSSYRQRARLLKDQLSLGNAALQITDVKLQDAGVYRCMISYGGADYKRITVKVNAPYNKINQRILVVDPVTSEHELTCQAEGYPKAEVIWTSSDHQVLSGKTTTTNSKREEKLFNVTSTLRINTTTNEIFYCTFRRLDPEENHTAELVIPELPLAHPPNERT

CD3 on T cells = CD3 on T cells (Homo sapiens (Human), UniProt P07766 23-207; P04234 22-171; P09693 23-182); assay: cell-based or functional assay
Sequence of CD3 on T cells (P07766 23-207 limits assumed, chain 1 of 3): as the sequence (chain, as listed by the source) above
Sequence of CD3 on T cells (P04234 22-171 limits assumed, chain 2 of 3): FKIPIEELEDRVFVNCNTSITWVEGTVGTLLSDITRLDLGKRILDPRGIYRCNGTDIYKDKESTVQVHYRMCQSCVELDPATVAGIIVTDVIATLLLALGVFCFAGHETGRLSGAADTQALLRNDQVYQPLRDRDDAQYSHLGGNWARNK
Sequence of CD3 on T cells (P09693 23-182 limits assumed, chain 3 of 3): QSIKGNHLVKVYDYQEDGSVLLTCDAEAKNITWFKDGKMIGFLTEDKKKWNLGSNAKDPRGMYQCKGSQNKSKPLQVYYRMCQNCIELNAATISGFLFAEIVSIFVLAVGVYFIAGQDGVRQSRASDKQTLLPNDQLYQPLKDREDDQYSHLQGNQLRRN

Human PD-L1 [2] = molecular target: T2, Human PD-L1; assay: SPR, PD-L1 amine-coupled, variant as analyte
Human PD-L1 [3] = molecular target: T2, Human PD-L1; assay: SPR, PD-L1 amine-coupled, variant as analyte, 1:1 model
Human PD-L1 [4] = molecular target: T2, Human PD-L1; assay: as above; remark: listed apart in the source
Human PD-L2 = molecular target: T1, Human PD-L2; assay: SPR, PD-L2 amine-coupled, variant as analyte, 1:1 model

| Binder | Kd (Human CD3 (recombinant)) | binding result (Human PD-L1 [2]) | also measured |
| --- | --- | --- | --- |
| B1 | 3.5 nM |  | EC50 (read off the curve); hybrid PD-1/PD-L1 reporter gene assay, delta RLU, PD-1+ Jurkat T cells with SNU-620 cells, top left graph; composite signal of CD3 engagement and PD-1:PD-L1 blockade (PD-L1 on cells): ~500 pM; Kd (Human PD-L1 [1]): 280 nM |
| B2 |  |  | EC50 (read off the curve); hybrid PD-1/PD-L1 reporter gene assay, delta RLU, PD-1+ Jurkat T cells with SNU-620 cells, bottom graph (CD3 on T cells): ~50 pM |
| B3 | 37 nM | no binding |  |
| B4 | 77 nM | no binding |  |
| B5 | 39 nM |  | Kd (Human PD-L1 [3]): 310 nM; Kd (Human PD-L1 [4]): 110 nM; Kd (Human PD-L2): 230 nM |
